{
  "source": "the RNAGym collection of RNA variant scans (doi:10.1093/molbev/msab373)",
  "parents": {"B1": {"name": "Azoarcus group I ribozyme (parent)", "chain": "GUGCCUUGCGCCGGGAAACCACGCAAGGGAUGGUGUCAAAUUCGGCGAAACCUAAGCGCCCGCCCGGGCGUAUGGCAACGCCGAGCCAAGCUUCGGCGCCUGCGCCGAUGAAGGUGUAGAGACUAGACGGCACCCACCUAAGGCAAACGCUAUGGUGAAGGCAUAGUCCAGGGAGUGGCGAAAGUCACACAAACCGG"}},
  "data": [
    {"variants_of": "B1", "experiment": "reverse-splicing fitness (ratio to wild type); higher = more active; in vitro selection; Mg2+ level not given", "summary_of_the_method": "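An in vitro group I ribozyme library with randomized positions was T7-transcribed and gel-purified. In triplicate, 10 pmol RNA in EPPS pH 7.5 was reacted with 50 pmoles of a 30-nt RNA substrate for 1 h at 37 °C across several added MgCl2 levels (1–48 mM), then stopped with EDTA. Products were reverse transcribed from a substrate-complementary primer, PCR-amplified and sequenced (HiSeq 4000). Fitness is a variant's read proportion after selection over that before, normalised to wild type.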", "values": [
      {"variant": "C82U A111U A145U C169A", "reverse-splicing fitness": 0.00706},
      {"variant": "C82U A111U A145U C169A U176A", "reverse-splicing fitness": 0.00935},
      {"variant": "C82U A111U A145U C169A U176C", "reverse-splicing fitness": 0.00904},
      {"variant": "C82U A111U A145U C169A U176G", "reverse-splicing fitness": 0.00592},
      {"variant": "C82U A111U A145U C169G", "reverse-splicing fitness": 0.00791},
      {"variant": "C82U A111U A145U C169G U176A", "reverse-splicing fitness": 0.0101},
      {"variant": "C82U A111U A145U C169G U176C", "reverse-splicing fitness": 0.0101},
      {"variant": "C82U A111U A145U C169G U176G", "reverse-splicing fitness": 0.0053},
      {"variant": "C82U A111U A145U C169U", "reverse-splicing fitness": 0.0106},
      {"variant": "C82U A111U A145U C169U U176A", "reverse-splicing fitness": 0.0125},
      {"variant": "C82U A111U A145U C169U U176C", "reverse-splicing fitness": 0.0127},
      {"variant": "C82U A111U A145U C169U U176G", "reverse-splicing fitness": 0.00446},
      {"variant": "C82U A111U A145U U176A", "reverse-splicing fitness": 0.112},
      {"variant": "C82U A111U A145U U176C", "reverse-splicing fitness": 0.154},
      {"variant": "C82U A111U A145U U176G", "reverse-splicing fitness": 0.0313},
      {"variant": "C82U A111U C150A", "reverse-splicing fitness": 0.031},
      {"variant": "C82U A111U C150A C169A", "reverse-splicing fitness": 0.00982},
      {"variant": "C82U A111U C150A C169A U176A", "reverse-splicing fitness": 0.0195},
      {"variant": "C82U A111U C150A C169A U176C", "reverse-splicing fitness": 0.0168},
      {"variant": "C82U A111U C150A C169A U176G", "reverse-splicing fitness": 0.00696},
      {"variant": "C82U A111U C150A C169G", "reverse-splicing fitness": 0.00941},
      {"variant": "C82U A111U C150A C169G U176A", "reverse-splicing fitness": 0.0193},
      {"variant": "C82U A111U C150A C169G U176C", "reverse-splicing fitness": 0.0217},
      {"variant": "C82U A111U C150A C169G U176G", "reverse-splicing fitness": 0.00717},
      {"variant": "C82U A111U C150A C169U", "reverse-splicing fitness": 0.0133},
      {"variant": "C82U A111U C150A C169U U176A", "reverse-splicing fitness": 0.0198},
      {"variant": "C82U A111U C150A C169U U176C", "reverse-splicing fitness": 0.0152},
      {"variant": "C82U A111U C150A C169U U176G", "reverse-splicing fitness": 0.0075},
      {"variant": "C82U A111U C150A U176A", "reverse-splicing fitness": 0.0157},
      {"variant": "C82U A111U C150A U176C", "reverse-splicing fitness": 0.0289},
      {"variant": "C82U A111U C150A U176G", "reverse-splicing fitness": 0.00896},
      {"variant": "C82U A111U C150G", "reverse-splicing fitness": 0.0213},
      {"variant": "C82U A111U C150G C169A", "reverse-splicing fitness": 0.00799},
      {"variant": "C82U A111U C150G C169A U176A", "reverse-splicing fitness": 0.00971},
      {"variant": "C82U A111U C150G C169A U176C", "reverse-splicing fitness": 0.00895},
      {"variant": "C82U A111U C150G C169A U176G", "reverse-splicing fitness": 0.00774},
      {"variant": "C82U A111U C150G C169G", "reverse-splicing fitness": 0.00698},
      {"variant": "C82U A111U C150G C169G U176A", "reverse-splicing fitness": 0.00711},
      {"variant": "C82U A111U C150G C169G U176C", "reverse-splicing fitness": 0.00452},
      {"variant": "C82U A111U C150G C169G U176G", "reverse-splicing fitness": 0.00532},
      {"variant": "C82U A111U C150G C169U", "reverse-splicing fitness": 0.0095},
      {"variant": "C82U A111U C150G C169U U176A", "reverse-splicing fitness": 0.00687},
      {"variant": "C82U A111U C150G C169U U176C", "reverse-splicing fitness": 0.0106},
      {"variant": "C82U A111U C150G C169U U176G", "reverse-splicing fitness": 0.00604},
      {"variant": "C82U A111U C150G U176A", "reverse-splicing fitness": 0.00833},
      {"variant": "C82U A111U C150G U176C", "reverse-splicing fitness": 0.0152},
      {"variant": "C82U A111U C150G U176G", "reverse-splicing fitness": 0.00369},
      {"variant": "C82U A111U C150U", "reverse-splicing fitness": 0.157},
      {"variant": "C82U A111U C150U C169A", "reverse-splicing fitness": 0.00856},
      {"variant": "C82U A111U C150U C169A U176A", "reverse-splicing fitness": 0.0138},
      {"variant": "C82U A111U C150U C169A U176C", "reverse-splicing fitness": 0.0125},
      {"variant": "C82U A111U C150U C169A U176G", "reverse-splicing fitness": 0.00643},
      {"variant": "C82U A111U C150U C169G", "reverse-splicing fitness": 0.00892},
      {"variant": "C82U A111U C150U C169G U176A", "reverse-splicing fitness": 0.013},
      {"variant": "C82U A111U C150U C169G U176C", "reverse-splicing fitness": 0.0162},
      {"variant": "C82U A111U C150U C169G U176G", "reverse-splicing fitness": 0.00639},
      {"variant": "C82U A111U C150U C169U", "reverse-splicing fitness": 0.0102},
      {"variant": "C82U A111U C150U C169U U176A", "reverse-splicing fitness": 0.0149},
      {"variant": "C82U A111U C150U C169U U176C", "reverse-splicing fitness": 0.0152},
      {"variant": "C82U A111U C150U C169U U176G", "reverse-splicing fitness": 0.00625},
      {"variant": "C82U A111U C150U U176A", "reverse-splicing fitness": 0.0519},
      {"variant": "C82U A111U C150U U176C", "reverse-splicing fitness": 0.0816},
      {"variant": "C82U A111U C150U U176G", "reverse-splicing fitness": 0.0154},
      {"variant": "C82U A111U C169A", "reverse-splicing fitness": 0.00848},
      {"variant": "C82U A111U C169A U176A", "reverse-splicing fitness": 0.0141},
      {"variant": "C82U A111U C169A U176C", "reverse-splicing fitness": 0.02},
      {"variant": "C82U A111U C169A U176G", "reverse-splicing fitness": 0.00543},
      {"variant": "C82U A111U C169G", "reverse-splicing fitness": 0.00886},
      {"variant": "C82U A111U C169G U176A", "reverse-splicing fitness": 0.0162},
      {"variant": "C82U A111U C169G U176C", "reverse-splicing fitness": 0.0183},
      {"variant": "C82U A111U C169G U176G", "reverse-splicing fitness": 0.0052},
      {"variant": "C82U A111U C169U", "reverse-splicing fitness": 0.0122},
      {"variant": "C82U A111U C169U U176A", "reverse-splicing fitness": 0.0149},
      {"variant": "C82U A111U C169U U176C", "reverse-splicing fitness": 0.013},
      {"variant": "C82U A111U C169U U176G", "reverse-splicing fitness": 0.00559},
      {"variant": "C82U A111U U176A", "reverse-splicing fitness": 0.107},
      {"variant": "C82U A111U U176C", "reverse-splicing fitness": 0.173},
      {"variant": "C82U A111U U176G", "reverse-splicing fitness": 0.0233},
      {"variant": "C82U A120C", "reverse-splicing fitness": 0.167},
      {"variant": "C82U A120C A145C", "reverse-splicing fitness": 0.149},
      {"variant": "C82U A120C A145C C150A", "reverse-splicing fitness": 0.0114},
      {"variant": "C82U A120C A145C C150A C169A", "reverse-splicing fitness": 0.00632},
      {"variant": "C82U A120C A145C C150A C169A U176A", "reverse-splicing fitness": 0.00849},
      {"variant": "C82U A120C A145C C150A C169A U176C", "reverse-splicing fitness": 0.00429}
    ]}
  ]
}
